Measurements taken from patent US20110195482.

How the values were obtained:
[1] = target: prothrombin (Sigma), a human blood coagulation factor (UniProt P00734)
[2] = system: fibrin of the fibrin plate (fibrinogen converted with 40 units of thrombin)
[3] = target: fibrinogen (MP Biomedicals), a human fibrin precursor (UniProt P02671)

Q: What does the source list for “serine protease present in the venom of Bombus ignitus, activated form (Bi-VSP)”?
A: human prothrombin activation by Bi-VSP, SDS-PAGE time course [1]: prothrombin started to convert into an activated form of thrombin 5 min after the reaction; fibrin plate assay, fibrinolytic activity [2]: white zones for the fibirnolysis were formed according to each different concentration; human fibrinogen hydrolysis by Bi-VSP, SDS-PAGE time course (Aα chain) [3]: Aα chain was completely hydrolyzed within 5 min after the reaction; human fibrinogen hydrolysis by Bi-VSP, SDS-PAGE time course (Bβ and γ chains) [3]: Bβ and γ chains were completely hydrolyzed within 60 min
